The data set concerns the molecule itself. The experiment in a line: cross-linking.

The results in this text go back to paper PMC3793302 (Developmental cell, 2004).

B1: C-TSK-Myc-His expressed in Xenopus embryos (natural protein, chick, UniProt Q65Z91 20-369, looked up)
chain: KTCFPGCHCEVESFGLFDSFSLTKVDCSGIGSHIVPVPIPLDTSYLDLSSNKLETINESMLTGPGYTTLVSLDLSYNNIAKISSTTFSRLRYLESLDLSHNSLEVLPEDCFSSSPLGDIDLSNNKLLDIALDVFASKGQGKPLNVDLSNNMLSKITRNHEKSIPNIQNLNLSGNRLTSVPNLQGIPLRYLNLDGNPLAKIEKGDFKGLKGLIHLSLSGLHDFRELSPYSFKELPALQVLDLSNNPNLRSLTAEVIFGLNSIQELNLSGTGVSSLPKTVLKYLPSLKSITLRKNIQCFKTIKEGQYHRQIGLTKLGLGAEELLWCKTPCPRPVCRCRDKPLQSAPQNLPTP
For the protein B1, the stoichiometry N (in general, a count of units in the complex or per binding partner) worked out at 2.
